In article PMC11645210:

Experiments:
[1] = molecular target: SARS-CoV-2 BA.2.86 Hexapro S ectodomain (SARS-CoV-2) (UniProt P0DTC2); experiment: cryo-EM structure
[2] = molecular target: SARS-CoV-2 XBB.1.5 + L455S RBD (SARS-CoV-2) (UniProt P0DTC2); experiment: SPR
[3] = molecular target: SARS-CoV-2 XBB.1.5 + L455F RBD (SARS-CoV-2) (UniProt P0DTC2); experiment: SPR

Substance | stoichiometry N [1] | Kd [2] [nM] | koff [2] [s⁻¹] | kon [2] [M⁻¹ s⁻¹] | Kd [3] [nM] | koff [3] [s⁻¹] | kon [3] [M⁻¹ s⁻¹]
SARS-CoV-2 BA.2.86 Hexapro S ectodomain (from UniProt P0DTC2 14-1204) (domain or fragment) | 3 | – | – | – | – | – | –
VIR-7229 Fab fragment | – | 0.199 | 0.000106 | 543000 | 0.193 | 0.000113 | 604000
